# In article PMC2857461 (The EMBO Journal, 2010):
# B1: His‐CT2 (domain or fragment, human, UniProt Q13563 680-968, looked up)
# chain: INDTYSEVKSDLAQQKAEMELSDLIRKGYHKALVKLKLKKNTVDDISESLRQGGGKLNFDELRQDLKGKGHTDAEIEAIFTKYDQDGDQELTEHEHQQMRDDLEKEREDLDLDHSSLPRPMSSRSFPRSLDDSEEDDDEDSGHSSRRRGSISSGVSYEEFQVLVRRVDRMEHSIGSIVSKIDAVIVKLEIMERAKLKRREVLGRLLDGVAEDERLGRDSEIHREQMERLVREELERWESDDAASQISHGLGTPVGLNGQPRPRSSRPSSSQSTEGMEGAGGNGSSNVHV
# What was measured:
# AUC = target: the molecule itself; experiment: AUC
# cross-linking = target: the molecule itself; experiment: cross-linking
protein,measurement,setting,value
B1,stoichiometry N,AUC,2
same,stoichiometry N,cross-linking,4
